Experimental data published in publication PMC6156364, “Bioinformatic and in vitro Analyses of Arabidopsis Starch Synthase 2 Reveal Post-translational Regulatory Mechanisms” (Frontiers in Plant Science, 2018).

What was measured:
Experiment in all cases: SEC; gel permeation chromatography of ArcticExpress bacterial lysates on Superdex 20/300 GL in rupturing buffer (20 mM Tricine pH 7.5, 7.5 mM MgCl2, 1 mM DTT), 0.25 ml/min; fractions immunoblotted with anti-S-tag; wild type also pretreated with CKII + 1 mM ATP or with CIP
[1] = biological target: recombinant S-tagged Arabidopsis SS2 N-terminal truncation TRU1 (Arabidopsis thaliana) (UniProt Q9MAC8)
[2] = biological target: recombinant S-tagged Arabidopsis SS2 N-terminal region polypeptide (NT) (Arabidopsis thaliana) (UniProt Q9MAC8)
[3] = biological target: the molecule itself

Question: With “recombinant S-tagged Arabidopsis SS2 N-terminal truncation TRU1 (from UniProt Q9MAC8 57-792) (domain or fragment)” as the molecule, how does the stoichiometry N [1] read?
Answer: The stoichiometry N was 2.

Question: With “recombinant S-tagged Arabidopsis SS2 N-terminal region polypeptide (NT) (from UniProt Q9MAC8 56-240) (domain or fragment)” as the molecule, how does the stoichiometry N [2] read?
Answer: Its stoichiometry N is > 6.

B1: recombinant S-tagged mature Arabidopsis thaliana starch synthase 2 (wild type) (enzyme, UniProt Q9MAC8 55-792, looked up)
chain: KCVSRVEASGSDDDEPEDALQATIDKSKKVLAMQRNLLHQIAERRKLVSSIKESTPDLDDAKASSKQESASSVNANTDATKKEIMDGDANGSVSPSTYGKSSLSKEPEAKTFSPSTESLKNRKQSSASVISSSPVTSPQKPSDVATNGKPWSSVVASSVDPPYKPSSVMTSPEKTSDPVTSPGKPSKSRAGAFWSDPLPSYLTKAPQTSTMKTEKYVEKTPDVASSETNEPGKDEEKPPPLAGANVMNVILVAAECAPFSKTGGLGDVAGALPKSLARRGHRVMVVVPRYAEYAEAKDLGVRKRYKVAGQDMEVMYFHAFIDGVDFVFIDSPEFRHLSNNIYGGNRLDILKRMVLFCKAAVEVPWYVPCGGVCYGDGNLAFIANDWHTALLPVYLKAYYRDHGIMKYTRSVLVIHNIAHQGRGPVDDFSYVDLPSHYLDSFKLYDPVGGEHFNIFAAGLKAADRVLTVSHGYSWEVKTLEGGWGLHNIINENDWKFRGIVNGIDTQEWNPEFDTYLHSDDYTNYSLENLHIGKPQCKAALQKELGLPVRPDVPLIGFIGRLDHQKGVDLIAEAVPWMMSQDVQLVMLGTGRPDLEEVLRQMEHQYRDKARGWVGFSVKTAHRITAGADILLMPSRFEPCGLNQLYAMNYGTIPVVHAVGGLRDTVQQFDPYSETGLGWTFDSAEAGKLIHALGNCLLTYREYKESWEGLQRRGMTQDLSWDNAAEKYEEVLVAAKYHW
notes: Cloned into pET29a; Predicted 85 kDa; also called SS2; AtSS2; source: E. coli ArcticExpress; in bacterial lysate (GPC); not shown: S-tag, N-terminal, kept
Question: With B1 as the molecule, how does the “stoichiometry N” value [3] read?
Answer: Its value is 2.
